Here are results for three molecules from US12679878B2, “CRF2 receptor agonists and their use in therapy” (SANOFI, priority 2020, dated 2026).

Starred links: 1 amine or outer side, 2 acyl side, 3 side chain; linkers in the order of their positions; H or OH if unused. Non-standard residues stand in square brackets, D forms with d. Groups on a side chain read outwards from the residue. No end group written: not given here. *: point of attachment. C18 diacid = O=C(O)CCCCCCCCCCCCCCCCC(=O)*; γGlu = O=C(O)[C@H](CCC(=O)[*:2])N[*:1]; AEEA = NCCOCCOCC(=O)O; Aib = CC(C)(N)C(=O)O

For this experiment, the target named is human corticotropin-releasing factor 2α (CRF2 α receptor) (human), Q13324. The experiment in a line: cell-based or functional assay.

B1: SEQ ID NO: 82 (peptide)
peptide: IVLSLDVPTKLK([AEEA-AEEA-γGlu-C18 diacid])QILLKQERQKK[Aib]REQAETNVRILERV-NH2
modifications: N-terminus assumed
SMILES: CC[C@H](C)[C@H](N)C(=O)N[C@H](C(=O)N[C@@H](CC(C)C)C(=O)N[C@@H](CO)C(=O)N[C@@H](CC(C)C)C(=O)N[C@@H](CC(=O)O)C(=O)N[C@H](C(=O)N1CCC[C@H]1C(=O)N[C@H](C(=O)N[C@@H](CCCCN)C(=O)N[C@@H](CC(C)C)C(=O)N[C@@H](CCCCNC(=O)COCCOCCNC(=O)COCCOCCNC(=O)CC[C@H](NC(=O)CCCCCCCCCCCCCCCCC(=O)O)C(=O)O)C(=O)N[C@@H](CCC(N)=O)C(=O)N[C@H](C(=O)N[C@@H](CC(C)C)C(=O)N[C@@H](CC(C)C)C(=O)N[C@@H](CCCCN)C(=O)N[C@@H](CCC(N)=O)C(=O)N[C@@H](CCC(=O)O)C(=O)N[C@@H](CCCNC(=N)N)C(=O)N[C@@H](CCC(N)=O)C(=O)N[C@@H](CCCCN)C(=O)N[C@@H](CCCCN)C(=O)NC(C)(C)C(=O)N[C@@H](CCCNC(=N)N)C(=O)N[C@@H](CCC(=O)O)C(=O)N[C@@H](CCC(N)=O)C(=O)N[C@@H](C)C(=O)N[C@@H](CCC(=O)O)C(=O)N[C@H](C(=O)N[C@@H](CC(N)=O)C(=O)N[C@H](C(=O)N[C@@H](CCCNC(=N)N)C(=O)N[C@H](C(=O)N[C@@H](CC(C)C)C(=O)N[C@@H](CCC(=O)O)C(=O)N[C@@H](CCCNC(=N)N)C(=O)N[C@H](C(N)=O)C(C)C)[C@@H](C)CC)C(C)C)[C@@H](C)O)[C@@H](C)CC)[C@@H](C)O)C(C)C)C(C)C
As to B1, the EC50 [nM], 0% HSA stood at 10.1 nM.

B2: SEQ ID NO: 84 (peptide)
peptide: IVLSLDVPIKLK([AEEA-AEEA-γGlu-C18 diacid])QKLLEQEKQKKQREQAETNKQILAQV-NH2
modifications: N-terminus assumed
SMILES: CC[C@H](C)[C@H](N)C(=O)N[C@H](C(=O)N[C@@H](CC(C)C)C(=O)N[C@@H](CO)C(=O)N[C@@H](CC(C)C)C(=O)N[C@@H](CC(=O)O)C(=O)N[C@H](C(=O)N1CCC[C@H]1C(=O)N[C@H](C(=O)N[C@@H](CCCCN)C(=O)N[C@@H](CC(C)C)C(=O)N[C@@H](CCCCNC(=O)COCCOCCNC(=O)COCCOCCNC(=O)CC[C@H](NC(=O)CCCCCCCCCCCCCCCCC(=O)O)C(=O)O)C(=O)N[C@@H](CCC(N)=O)C(=O)N[C@@H](CCCCN)C(=O)N[C@@H](CC(C)C)C(=O)N[C@@H](CC(C)C)C(=O)N[C@@H](CCC(=O)O)C(=O)N[C@@H](CCC(N)=O)C(=O)N[C@@H](CCC(=O)O)C(=O)N[C@@H](CCCCN)C(=O)N[C@@H](CCC(N)=O)C(=O)N[C@@H](CCCCN)C(=O)N[C@@H](CCCCN)C(=O)N[C@@H](CCC(N)=O)C(=O)N[C@@H](CCCNC(=N)N)C(=O)N[C@@H](CCC(=O)O)C(=O)N[C@@H](CCC(N)=O)C(=O)N[C@@H](C)C(=O)N[C@@H](CCC(=O)O)C(=O)N[C@H](C(=O)N[C@@H](CC(N)=O)C(=O)N[C@@H](CCCCN)C(=O)N[C@@H](CCC(N)=O)C(=O)N[C@H](C(=O)N[C@@H](CC(C)C)C(=O)N[C@@H](C)C(=O)N[C@@H](CCC(N)=O)C(=O)N[C@H](C(N)=O)C(C)C)[C@@H](C)CC)[C@@H](C)O)[C@@H](C)CC)C(C)C)C(C)C
For B2, the EC50 [nM], 0% HSA worked out at 1.85 nM and the EC50 [nM], 0.1% HSA was 61.7 nM.

B3: SEQ ID NO: 83 (peptide)
peptide: IVLSLD[dV]PIGLK([AEEA-AEEA-γGlu-C18 diacid])QILLKQERQKK[Aib]REQAETNKRILERV-NH2
modifications: N-terminus assumed
SMILES: CC[C@H](C)[C@H](N)C(=O)N[C@H](C(=O)N[C@@H](CC(C)C)C(=O)N[C@@H](CO)C(=O)N[C@@H](CC(C)C)C(=O)N[C@@H](CC(=O)O)C(=O)N[C@@H](C(=O)N1CCC[C@H]1C(=O)N[C@H](C(=O)NCC(=O)N[C@@H](CC(C)C)C(=O)N[C@@H](CCCCNC(=O)COCCOCCNC(=O)COCCOCCNC(=O)CC[C@H](NC(=O)CCCCCCCCCCCCCCCCC(=O)O)C(=O)O)C(=O)N[C@@H](CCC(N)=O)C(=O)N[C@H](C(=O)N[C@@H](CC(C)C)C(=O)N[C@@H](CC(C)C)C(=O)N[C@@H](CCCCN)C(=O)N[C@@H](CCC(N)=O)C(=O)N[C@@H](CCC(=O)O)C(=O)N[C@@H](CCCNC(=N)N)C(=O)N[C@@H](CCC(N)=O)C(=O)N[C@@H](CCCCN)C(=O)N[C@@H](CCCCN)C(=O)NC(C)(C)C(=O)N[C@@H](CCCNC(=N)N)C(=O)N[C@@H](CCC(=O)O)C(=O)N[C@@H](CCC(N)=O)C(=O)N[C@@H](C)C(=O)N[C@@H](CCC(=O)O)C(=O)N[C@H](C(=O)N[C@@H](CC(N)=O)C(=O)N[C@@H](CCCCN)C(=O)N[C@@H](CCCNC(=N)N)C(=O)N[C@H](C(=O)N[C@@H](CC(C)C)C(=O)N[C@@H](CCC(=O)O)C(=O)N[C@@H](CCCNC(=N)N)C(=O)N[C@H](C(N)=O)C(C)C)[C@@H](C)CC)[C@@H](C)O)[C@@H](C)CC)[C@@H](C)CC)C(C)C)C(C)C
Molecule B3 yielded an EC50 [nM], 0% HSA of 0.07 nM and an EC50 [nM], 0.1% HSA of 2.99 nM.
